Experimental data: patent US20230272055A1 (Incyte, published 2023)

Key:
Human Type 1 mutCALR [1] = biological target: T1, Human Type 1 mutCALR (human); test: cell-based or functional assay
T1 chain: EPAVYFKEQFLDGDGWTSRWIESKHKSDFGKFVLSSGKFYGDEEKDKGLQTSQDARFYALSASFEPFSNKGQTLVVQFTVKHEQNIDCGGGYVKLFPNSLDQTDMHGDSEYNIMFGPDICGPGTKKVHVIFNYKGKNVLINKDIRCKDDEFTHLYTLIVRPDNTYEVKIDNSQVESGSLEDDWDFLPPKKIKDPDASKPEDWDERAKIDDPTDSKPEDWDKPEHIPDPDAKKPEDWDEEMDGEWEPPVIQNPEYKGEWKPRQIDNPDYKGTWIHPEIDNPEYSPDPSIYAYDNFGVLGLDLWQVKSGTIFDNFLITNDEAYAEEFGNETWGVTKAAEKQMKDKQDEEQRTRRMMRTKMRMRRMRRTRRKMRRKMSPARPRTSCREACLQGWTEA

Human Type 1 mutCALR [2] = biological target: T1, Human Type 1 mutCALR; test: cell-based or functional assay
Human Type 1 mutCALR [3] = biological target: T1, Human Type 1 mutCALR; test: cell-based or functional assay
[4] = biological target: T2, recombinant Flag tag_GFP_tev_hmutCALR Type 1 (human); test: HTRF competition: preformed complex of 5 nM Flag-GFP-mutCALR Type 1 and 80 nM His-MPL, anti-FLAG-Europium / anti-6xHis-APC, 90 min reading; blocked ligand: His-MPL
T2 construct: also called FLAG-GFP-tev-mutCALR
Experimental: HTRF detection solution (2 nM anti-FLAG-Europium, and 100 nM anti-6×His-SureLight® APC) was then added and the plate was read on BMG PHERAstar FSX using kinetic HTRF protocol, obtaining readings every 15 minutes for 120 minutes total. […] Percent-of-control values were obtained by dividing the background-subtracted HTRF Ratios for each test well by the buffer control well in the same plate row.

MBP protein = MBP protein (UniProt P0AEX9 27-392 = MBP); test: SPR (Biacore 8K), antibody captured on anti-human IgG (Fc), MBP injected
[5] = biological target: T3, human Type 1 mutCALR (52 bp deletion) (human); test: flow cytometry on BaF3 cells stably expressing human MPL and human mutCALR Type 1, goat anti-human R-PE secondary, GMFI
T3 construct: also called human mutCALR Type 1; mutant CALR
T3 chain: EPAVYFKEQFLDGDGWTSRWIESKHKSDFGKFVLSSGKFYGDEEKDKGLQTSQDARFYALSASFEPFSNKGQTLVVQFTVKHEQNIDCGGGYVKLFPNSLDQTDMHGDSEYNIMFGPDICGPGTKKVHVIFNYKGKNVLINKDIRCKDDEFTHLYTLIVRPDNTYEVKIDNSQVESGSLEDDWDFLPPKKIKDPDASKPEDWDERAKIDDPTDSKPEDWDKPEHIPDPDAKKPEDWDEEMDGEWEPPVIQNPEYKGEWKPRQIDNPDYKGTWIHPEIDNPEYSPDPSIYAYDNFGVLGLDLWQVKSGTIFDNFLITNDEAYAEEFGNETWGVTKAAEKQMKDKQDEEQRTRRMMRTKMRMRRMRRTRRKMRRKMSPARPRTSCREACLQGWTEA
Experimental: Approximately 200,000 cells/well were added to 96-well plates and stained with the indicated concentration of antibodies for 30 minutes on ice. Cells were then washed and stained with goat anti-human secondary conjugated to R-phycoerythrin (R-PE) (Jackson Immuno Research Laboratories) for 30 minutes on ice. The cells were then washed again and analyzed by flow cytometry.

B1: anti-mutCALR antibody clone 36 (antibody, human IgG1, lambda, V domains shown)
VH: QVQLVQSGAEVKKPGATVKISCKVSGYSFTDYFIHWVQQAPGKGLAWVGLVDPEDGETIYAEKFQGRVTITADTSTDTAYMELSSLRSEDTAVYYCATPGGILTDPDAFDIWGQGTMVTVSS
VL: QSALTQPRSVSGSPGQSVTISCAGTGSDVGGYNYVSWYQHHPGKAPKLMIYDVNKRPSGVPDRFSGSKSGNTASLTISGLQAEDEADYYCSSYTSSSTFYVFGTGTKVTVLG
IC50 of inhibition of cell proliferation (Ba/F3 cells with MPL and mutCALR Type 1) (Human Type 1 mutCALR [1]): 0.0905 µg/mL
IC50 of inhibition of cell proliferation (BaF3 cells expressing MPL/mutCALR Type 1) (Human Type 1 mutCALR [2]): 0.98 µg/mL
Log IC50 of inhibition of cell proliferation, antibody + ruxolitinib (Ba/F3-TPOR/mutCALR type 1 cells); extrapolated from fitted curve (Human Type 1 mutCALR [3]): -3.88 Log IC50 (µg/mL)

B2: anti-mutCALR antibody clone 32 (antibody, human IgG1, lambda, V domains shown)
VH: QVQLVQSGAEVKKPGATVKISCKVSGYSFTDYFIHWVQQAPGKGLAWVGLVDPEDGETIYAEKFQGRVTITADTSTDTAYMELSSLRSEDTAVYYCATPGGILTDPDAFDIWGQGTMVTVSS
VL: QSALTQPASVSGSPGQSITISCTGTSSDVGGYNYVSWYQQHPGKAPKLMIYEVSNRPSGVSNRFSGSKSGNTASLTISGLQAEDEADYYCSSYTSSSTPYVFGTGTKVTVLG
notes: also called anti-mutCALR antibody 32
binding result [4]: binds
binding result (MBP protein): no binding (tested: 250 nM)

B3: anti-mutCALR antibody clone 41 (antibody, human IgG1, lambda, V domains shown)
VH: EVQLVQSGAEVKKPGASVKVSCKVSGYTLTELSMHWVRQAPGKGLEWMGLVDPEDGETIYAQKFQGRVTMTEDTSTDTAYMELSSLRSEDTAVYYCAREEWSGDGDDAFDIWGQGTMVTVSS
VL: QSVLTQPPSVSAAPGQKVTISCSGSSSNIGSYSVSWYQQLPGTAPKLLIYDNNKRPSGIPDRFSGSNSGTSATLGITGLQTGDEADYYCGTWDSSLSAWVFGGGTKLTVLG
IC50 of inhibition of cell proliferation (Ba/F3 cells with MPL and mutCALR Type 1) (Human Type 1 mutCALR [1]): 0.342 µg/mL
IC50 of inhibition of cell proliferation (BaF3 cells expressing MPL/mutCALR Type 1) (Human Type 1 mutCALR [2]): 3.98 µg/mL

B4: anti-mutCALR antibody clone 53 (antibody, human IgG1, lambda, V domains shown)
VH: QVQLVQSGAEVKKPGASVKVSCKVSGYTLTELSMHWVRQAPGKGLEWMGGFDPEDGETIYAQKFQGRVTMTEDTSTDTAYMELSSLRSEDTAVYYCATDIQGLAEFDYWGQGTLVTVSS
VL: QSALTQPRSVSGSPGQSVTISCTGTNTDVGAYIDVSWYQQHPGKAPKLIIYDVSKWPSGVPDRFSGSKSGNTASLTISGLQAEDEADYYCCSYAGNHSFSFGGGTKVTVLG
IC50 of inhibition of cell proliferation (Ba/F3 cells with MPL and mutCALR Type 1) (Human Type 1 mutCALR [1]): 0.399 µg/mL
IC50 of inhibition of cell proliferation (BaF3 cells expressing MPL/mutCALR Type 1) (Human Type 1 mutCALR [2]): 9.5 µg/mL
Log IC50 of inhibition of cell proliferation, antibody + ruxolitinib (Ba/F3-TPOR/mutCALR type 1 cells) (Human Type 1 mutCALR [3]): -0.424 Log IC50 (µg/mL)
Log IC50 of inhibition of cell proliferation, antibody alone (Ba/F3-TPOR/mutCALR type 1 cells) (Human Type 1 mutCALR [3]): -0.173 Log IC50 (µg/mL)

B5: AB2: anti-mutCALR antibody including VH and VL regions of antibody B3 from WO2020175689 fused to human constant regions (antibody, human IgG1, kappa, V domains shown)
VH: QVQLQQSGAELVKPGSSVKISCKASGYTFTRNFIHWIKQQPGNGLEWIGWIFPGDGDTEYNQKFNGKATLTADKSSSTAYMQLSSLTSEDSAVYFCARGNYNYEYFDYWGQGVMVTVSS
VL: DIQMTQSPASLSASLGETVSIECLASEDIYSYLAWYQQKPGKSPQLLIFAANRLQDGVPSRFSGSGSGTQFSLKISGMQPEDEGDYFCLQGSKFPYTFGPGTKLELNR
binding result [5]: binds

B6: AB3: anti-mutCALR antibody including the BJ095 VH region and the BJ097 VL region from WO2019178362 fused to human constant regions (antibody, human IgG1, kappa, V domains shown)
VH: QVQLVQSGAEVKKPGASVKVSCKASGYSFTGYYIHWVRQAPGQGLEWIGYISAYNGASSYNQKFKGRATFTVDTSISTAYMELSRLRSDDTAVYYCASSMDYWGQGTLVTVSS
VL: DVVMTQSPLSLPVTLGQPASISCKSSQSLLDSDGKTYLNWLQQRPGQSPKRLIYLVSKLDSGVPDRFSGSGSGTDFTLKISRVEAEDVGVYHCWQGTHFPYTFGQGTKLIEKR
binding result [5]: binds
